We go through three molecules from article doi:10.1101/2021.10.12.462922 (bioRxiv, 2021).

Broadly, the stoichiometry N is the number of molecules, sites or subunits per partner or assembly.

Where two headings read alike, the source gives them in different places.

Series [1] addresses PHF14;HMG20A (human;human, UniProt O94880;Q9NP66 1-948;1-347, |). The series can be described thus: EMSA. (In general: In EMSA bound probe runs differently from free probe, usually more slowly.)
In series [2] the target is PHF14;HMG20A;TCF20 (human;human;human, UniProt O94880;Q9NP66;Q9UGU0 1-948;1-347;1-1960, ||). As to the kind of experiment: EMSA.
The target of series [3] is T1, HMG20A (human, UniProt Q9NP66 1-347). As to the kind of experiment: EMSA.
Series [4] has as its target T2, PHF14 (human, UniProt O94880 1-948).
T2 sequence: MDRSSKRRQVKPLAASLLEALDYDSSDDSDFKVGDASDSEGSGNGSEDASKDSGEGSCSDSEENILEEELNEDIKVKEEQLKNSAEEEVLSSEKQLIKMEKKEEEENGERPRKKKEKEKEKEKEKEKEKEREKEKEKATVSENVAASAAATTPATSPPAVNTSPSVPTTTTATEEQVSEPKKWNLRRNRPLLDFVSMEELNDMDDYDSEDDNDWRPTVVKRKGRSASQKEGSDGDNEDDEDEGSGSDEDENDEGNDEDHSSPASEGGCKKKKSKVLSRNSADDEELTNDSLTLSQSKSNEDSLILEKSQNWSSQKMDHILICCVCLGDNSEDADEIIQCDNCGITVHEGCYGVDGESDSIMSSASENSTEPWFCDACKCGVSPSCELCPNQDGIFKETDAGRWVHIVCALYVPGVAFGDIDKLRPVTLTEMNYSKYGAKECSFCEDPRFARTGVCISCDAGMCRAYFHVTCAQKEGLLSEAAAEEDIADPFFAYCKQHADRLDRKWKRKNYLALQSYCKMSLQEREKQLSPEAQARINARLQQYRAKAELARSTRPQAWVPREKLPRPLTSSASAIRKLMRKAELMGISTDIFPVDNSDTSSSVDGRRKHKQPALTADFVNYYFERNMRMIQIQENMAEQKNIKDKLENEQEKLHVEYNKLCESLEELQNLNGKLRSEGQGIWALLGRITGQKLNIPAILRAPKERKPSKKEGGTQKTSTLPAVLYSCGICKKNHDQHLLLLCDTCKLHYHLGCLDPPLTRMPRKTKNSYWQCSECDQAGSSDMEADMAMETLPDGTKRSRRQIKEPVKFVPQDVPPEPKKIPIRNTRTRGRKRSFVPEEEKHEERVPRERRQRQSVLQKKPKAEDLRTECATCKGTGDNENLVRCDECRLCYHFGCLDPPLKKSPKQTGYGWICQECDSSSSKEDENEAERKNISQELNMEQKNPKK
As to the kind of experiment: EMSA.

In series [5] the target is T1, HMG20A. The series can be described thus: EMSA. This is another data set of the same source.
In series [6] the target is PHF14 (PHD finger protein 14), human, recombinant from insect cells (human) (UniProt O94880). As to the kind of experiment: native gel or EMSA.
Series [7] deals with T3, HMG20A, human, recombinant from insect cells (human, UniProt Q9NP66 1-347).
T3 sequence: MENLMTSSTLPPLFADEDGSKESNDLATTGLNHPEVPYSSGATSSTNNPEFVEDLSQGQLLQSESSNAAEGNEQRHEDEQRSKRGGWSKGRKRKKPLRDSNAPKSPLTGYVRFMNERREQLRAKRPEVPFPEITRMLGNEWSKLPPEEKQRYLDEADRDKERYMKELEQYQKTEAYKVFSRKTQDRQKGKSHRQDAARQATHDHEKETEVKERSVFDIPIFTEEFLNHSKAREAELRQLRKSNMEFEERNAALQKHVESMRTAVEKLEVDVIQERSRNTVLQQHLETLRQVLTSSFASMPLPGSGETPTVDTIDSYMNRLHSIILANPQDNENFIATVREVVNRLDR
As to the kind of experiment: native gel or EMSA.

B1: dsDNA (dsDNA)
DNA 1: CCCTATAACCCCTGCATTGAATTCCAGTCTGATAA
DNA 2: TTTATCAGACTGGAATTCAATGCAGGGGTTATAGGG
As for B1, the binding result in series [1], in series [2] and in series [3] was “binds” each time.

B2: 4WJ (four-way junction, Holliday junction) (structured_DNA)
DNA 1: B1 DNA 1
DNA 2: GTAGTCGTGATAGGTGCAGGGGTTATAGGG
DNA 3: AACAGTAGCTCTTATTCGAGCTCGCGCCCTATCACGACTA
DNA 4: TTTATCAGACTGGAATTCAAGCGCGAGCTCGAATAAGAGCTACTGT
With B2, the binding result in series [1] was “binds”; in series [2] it was “binds”; in series [4], “no binding”; in series [5] it was “binds”.

B3: TCF20 (transcription factor 20), human, recombinant from insect cells (natural protein)
chain: MQSFREQSSYHGNQQSYPQEVHGSSRLEEFSPRQAQMFQNFGGTGGSSGSSGSGSGGGRRGAAAAAAAMASETSGHQGYQGFRKEAGDFYYMAGNKDPVTTGTPQPPQRRPSGPVQSYGPPQGSSFGNQYGSEGHVGQFQAQHSGLGGVSHYQQDYTGPFSPGSAQYQQQASSQQQQQQVQQLRQQLYQSHQPLPQATGQPASSSSHLQPMQRPSTLPSSAAGYQLRVGQFGQHYQSSASSSSSSSFPSPQRFSQSGQSYDGSYNVNAGSQYEGHNVGSNAQAYGTQSNYSYQPQSMKNFEQAKIPQGTQQGQQQQQPQQQQHPSQHVMQYTNAATKLPLQSQVGQYNQPEVPVRSPMQFHQNFSPISNPSPAASVVQSPSCSSTPSPLMQTGENLQCGQGSVPMGSRNRILQLMPQLSPTPSMMPSPNSHAAGFKGFGLEGVPEKRLTDPGLSSLSALSTQVANLPNTVQHMLLSDALTPQKKTSKRPSSSKKADSCTNSEGSSQPEEQLKSPMAESLDGGCSSSSEDQGERVRQLSGQSTSSDTTYKGGASEKAGSSPAQGAQNEPPRLNASPAAREEATSPGAKDMPLSSDGNPKVNEKTVGVIVSREAMTGRVEKPGGQDKGSQEDDPAATQRPPSNGGAKETSHASLPQPEPPGGGGSKGNKNGDNNSNHNGEGNGQSGHSAAGPGFTSRTEPSKSPGSLRYSYKDSFGSAVPRNVSGFPQYPTGQEKGDFTGHGERKGRNEKFPSLLQEVLQGYHHHPDRRYSRSTQEHQGMAGSLEGTTRPNVLVSQTNELASRGLLNKSIGSLLENPHWGPWERKSSSTAPEMKQINLTDYPIPRKFEIEPQSSAHEPGGSLSERRSVICDISPLRQIVRDPGAHSLGHMSADTRIGRNDRLNPTLSQSVILPGGLVSMETKLKSQSGQIKEEDFEQSKSQASFNNKKSGDHCHPPSIKHESYRGNASPGAATHDSLSDYGPQDSRPTPMRRVPGRVGGREGMRGRSPSQYHDFAEKLKMSPGRSRGPGGDPHHMNPHMTFSERANRSSLHTPFSPNSETLASAYHANTRAHAYGDPNAGLNSQLHYKRQMYQQQPEEYKDWSSGSAQGVIAAAQHRQEGPRKSPRQQQFLDRVRSPLKNDKDGMMYGPPVGTYHDPSAQEAGRCLMSSDGLPNKGMELKHGSQKLQESCWDLSRQTSPAKSSGPPGMSSQKRYGPPHETDGHGLAEATQSSKPGSVMLRLPGQEDHSSQNPLIMRRRVRSFISPIPSKRQSQDVKNSSTEDKGRLLHSSKEGADKAFNSYAHLSHSQDIKSIPKRDSSKDLPSPDSRNCPAVTLTSPAKTKILPPRKGRGLKLEAIVQKITSPNIRRSASSNSAEAGGDTVTLDDILSLKSGPPEGGSVAVQDADIEKRKGEVASDLVSPANQELHVEKPLPRSSEEWRGSVDDKVKTETHAETVTAGKEPPGAMTSTTSQKPGSNQGRPDGSLGGTAPLIFPDSKNVPPVGILAPEANPKAEEKENDTVTISPKQEGFPPKGYFPSGKKKGRPIGSVNKQKKQQQPPPPPPQPPQIPEGSADGEPKPKKQRQRRERRKPGAQPRKRKTKQAVPIVEPQEPEIKLKYATQPLDKTDAKNKSFYPYIHVVNKCELGAVCTIINAEEEEQTKLVRGRKGQRSLTPPPSSTESKALPASSFMLQGPVVTESSVMGHLVCCLCGKWASYRNMGDLFGPFYPQDYAATLPKNPPPKRATEMQSKVKVRHKSASNGSKTDTEEEEEQQQQQKEQRSLAAHPRFKRRHRSEDCGGGPRSLSRGLPCKKAATEGSSEKTVLDSKPSVPTTSEGGPELELQIPELPLDSNEFWVHEGCILWANGIYLVCGRLYGLQEALEIAREMKCSHCQEAGATLGCYNKGCSFRYHYPCAIDADCLLHEENFSVRCPKHKPPLPCPLPPLQNKTAKGSLSTEQSERG
Regarding B3, the stoichiometry N in series [6] and in series [7] was 0.5 in each case.
